In this assay the target is HLA-A*02:01 (Homo sapiens, UniProt P04439, D140Y/D185E/D98H/E176V/E277Q/G131W/G231S/I119V/I121R/I166T/I218V/L300P/L318F/N151K/N90K/P208A/P217A/Q86G/Q94H/R138H/R169H/T345S). Kind of assay: MHC binding assay (UV-ligand exchange, beta2m ELISA). As to conditions: binding to HLA-A*02:01, β2m ELISA. A digest of the protocol: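 Peptide-MHC complexes made by UV-ligand exchange of a UV-cleavable peptide for test peptide; exchange yield measured by β2m ELISA on streptavidin-coated plates with samples diluted 100-fold, HRP anti-β2m and TMB read at 450 nm. Refolded HLA-A*02:01/MLA-001 monomers (15-500 ng/ml) served as standards.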

As for “244 (NVAEIVIHI; listed as Homo sapiens) [compound 244]”, the “Peptide exchange (MHC class I binding score, peptide exchange yield)” value (shortened to “Peptide exchange”) was “+++ (≥50 = +++)”.
In the case of “278 (VLEDKVLSV; listed as Homo sapiens) [compound 278]”, the “Peptide exchange” value is given as “+++ (≥50 = +++)”.
With “143 (MLWESIMRV; listed as Homo sapiens) [compound 143]”, the “Peptide exchange” value is recorded as “+++ (≥50 = +++)”.
“223 (ALHPVQFYL; listed as Homo sapiens) [compound 223]”: the “Peptide exchange” value is “+++ (≥50 = +++)”.
Consider “3 (RVIDDSLVVGV; listed as Homo sapiens) [compound 3]”, for which the “Peptide exchange” value is recorded as “+++ (≥50 = +++)”.
The value for “228 (SLLELDGINLRL; listed as Homo sapiens) [compound 228]” was “+++ (≥50 = +++)”; that for “106 (VLLGSVVIFA; listed as Homo sapiens) [compound 106]” was “++ (≥20% = ++)”.
The result for “86 (SLFSNIESV; listed as Homo sapiens) [compound 86]” reads “+++ (≥50 = +++)”.
The value for “41 (IVTEIISEI; listed as Homo sapiens) [compound 41]” was “+++ (≥50 = +++)”.
For the substance “26 (VLDGKVAVV; listed as Homo sapiens) [compound 26]”, the “Peptide exchange” value is listed as “+++ (≥50 = +++)”.
The result for “30 (IITEVITRL; listed as Homo sapiens) [compound 30]” reads “+++ (≥50 = +++)”; that for “221 (IMLNSVEEI; listed as Homo sapiens) [compound 221]”, “++ (≥20% = ++)”.
On to “145 (ALEEKLENV; listed as Homo sapiens) [compound 145]”, for which the “Peptide exchange” value was “+++ (≥50 = +++)”.
The value for “241 (KQFEGTVEI; listed as Homo sapiens) [compound 241]” was “+++ (≥50 = +++)”.
Consider “273 (SLNKQIETV; listed as Homo sapiens) [compound 273]”, for which the “Peptide exchange” value is “++ (≥20% = ++)”.
The result for “116 (ALLSSVAEA; listed as Homo sapiens) [compound 116]” reads “++ (≥20% = ++)”; that for “261 (GLAALAVHL; listed as Homo sapiens) [compound 261]”, “+++ (≥50 = +++)”.
With “195 (VIIQNLPAL; listed as Homo sapiens) [compound 195]”, the “Peptide exchange” value was “+++ (≥50 = +++)”.
“88 (LLLPLELSLA; listed as Homo sapiens) [compound 88]”: the “Peptide exchange” value was “+++ (≥50 = +++)”.
The result for “105 (AMLASQTEA; listed as Homo sapiens) [compound 105]” reads “++ (≥20% = ++)”.
For the substance “11 (LLDPKTIFL; listed as Homo sapiens) [compound 11]”, the “Peptide exchange” value is “+++ (≥50 = +++)”.
The value for “90 (AILNVDEKNQV; listed as Homo sapiens) [compound 90]” was “++ (≥20% = ++)”.
For “117 (TLLEGISRA; listed as Homo sapiens) [compound 117]”, the “Peptide exchange” value is given as “++ (≥20% = ++)”.
The result for “283 (ALSELLQQV; listed as Homo sapiens) [compound 283]” reads “+++ (≥50 = +++)”.
Regarding “59 (ALADGIKSFLL; listed as Homo sapiens) [compound 59]”, the “Peptide exchange” value is recorded as “+++ (≥50 = +++)”.
The result for “109 (ILGSFELQL; listed as Homo sapiens) [compound 109]” reads “+++ (≥50 = +++)”.
The value for “24 (KVWSDVTPL; listed as Homo sapiens) [compound 24]” was “+++ (≥50 = +++)”; that for “180 (RLYEEEIRI; listed as Homo sapiens) [compound 180]” was “+++ (≥50 = +++)”.
The value for “148 (YLILSSHQL; listed as Homo sapiens) [compound 148]” was “+++ (≥50 = +++)”; that for “174 (ALYSGDLHAA; listed as Homo sapiens) [compound 174]” was “++ (≥20% = ++)”.
For the substance “146 (VVAAHLAGA; listed as Homo sapiens) [compound 146]”, the “Peptide exchange” value was “++ (≥20% = ++)”.
Regarding “220 (ALSELERVL; listed as Homo sapiens) [compound 220]”, the “Peptide exchange” value was “+++ (≥50 = +++)”.
The result for “45 (FLPVSVVYV; listed as Homo sapiens) [compound 45]” reads “+++ (≥50 = +++)”.
On to “108 (FIANLPPELKA; listed as Homo sapiens) [compound 108]”, for which the “Peptide exchange” value is recorded as “+++ (≥50 = +++)”.
On to “60 (YLFSQGLQGL; listed as Homo sapiens) [compound 60]”, for which the “Peptide exchange” value was “+++ (≥50 = +++)”.
The value for “72 (VLSTRVTNV; listed as Homo sapiens) [compound 72]” was “++ (≥20% = ++)”.
For “58 (HLLGEGAFAQV; listed as Homo sapiens) [compound 58]”, the “Peptide exchange” value is “+++ (≥50 = +++)”.
For the substance “49 (KLIGNIHGNEV; listed as Homo sapiens) [compound 49]”, the “Peptide exchange” value is reported as “++ (≥20% = ++)”.
“207 (KLFETVEEL; listed as Homo sapiens) [compound 207]”: the “Peptide exchange” value is “+++ (≥50 = +++)”.
The value for “131 (SLYPHFTLL; listed as Homo sapiens) [compound 131]” was “+++ (≥50 = +++)”.
On to “80 (VLTGQVHEL; listed as Homo sapiens) [compound 80]”, for which the “Peptide exchange” value was “+++ (≥50 = +++)”.
With “166 (LLGDSSFFL; listed as Homo sapiens) [compound 166]”, the “Peptide exchange” value is reported as “+++ (≥50 = +++)”.
The result for “36 (TVLQELINV; listed as Homo sapiens) [compound 36]” reads “+++ (≥50 = +++)”; that for “284 (KLMDPGSLPPL; listed as Homo sapiens) [compound 284]”, “++ (≥20% = ++)”.
The result for “198 (ILTNKVVSV; listed as Homo sapiens) [compound 198]” reads “++ (≥20% = ++)”; that for “93 (RLYGYFHDA; listed as Homo sapiens) [compound 93]”, “++ (≥20% = ++)”.
Regarding “272 (FVMEGEPPKL; listed as Homo sapiens) [compound 272]”, the “Peptide exchange” value is reported as “++ (≥20% = ++)”.
The result for “188 (VLGEEQEGV; listed as Homo sapiens) [compound 188]” reads “++ (≥20% = ++)”; that for “48 (KISDFGLATV; listed as Homo sapiens) [compound 48]”, “+++ (≥50 = +++)”; that for “169 (ALADLSVAV; listed as Homo sapiens) [compound 169]”, “+++ (≥50 = +++)”.
The value for “107 (RVLPGQAVTGV; listed as Homo sapiens) [compound 107]” was “++ (≥20% = ++)”; that for “154 (AIIKEIQTV; listed as Homo sapiens) [compound 154]” was “++ (≥20% = ++)”; that for “122 (SIIDTELKV; listed as Homo sapiens) [compound 122]” was “+++ (≥50 = +++)”.
The result for “54 (YLVPGLVAA; listed as Homo sapiens) [compound 54]” reads “+++ (≥50 = +++)”; that for “158 (YLDPLWHQL; listed as Homo sapiens) [compound 158]”, “+++ (≥50 = +++)”; that for “87 (KLLSLLEEA; listed as Homo sapiens) [compound 87]”, “+++ (≥50 = +++)”.
Regarding “231 (LLDDIFIRL; listed as Homo sapiens) [compound 231]”, the “Peptide exchange” value is “+++ (≥50 = +++)”.
In the case of “85 (KLLDKPEQFL; listed as Homo sapiens) [compound 85]”, the “Peptide exchange” value is reported as “++ (≥20% = ++)”.
The result for “141 (NIDINNNEL; listed as Homo sapiens) [compound 141]” reads “++ (≥20% = ++)”; that for “269 (GLLDCPIFL; listed as Homo sapiens) [compound 269]”, “++++ (≥75% = ++++)”.
Take “249 (YLYQILQGI; listed as Homo sapiens) [compound 249]”: the “Peptide exchange” value is “+++ (≥50 = +++)”.
The value for “191 (AAIEIFEKV; listed as Homo sapiens) [compound 191]” was “+++ (≥50 = +++)”.

These data come from US10081665B2, “Peptides and combination of peptides for use in immunotherapy against various tumors” (immatics biotechnologies GmbH, priority 2015, dated 2018).
